From the supplement of paper PMC7877785
± gives the uncertainty stated by the source.

Assay: self-splicing fitness, log relative to wild type (ln ratio); higher = more splicing; Tetrahymena group I intron in knt gene, E. coli kanamycin selection, DiMSum; sequences stand for … in CUCUCU…GGAGGGAAAAGUUAUCAGGCAUGCACCUGGUAGCUAGUCUUUAAACCAAUAGAUUGCAUCGGUUUAAAAGGCAAGACCGUCAAAUUGCGGGAAAGGGGUCAACAGCCGUUCAGUACCAAGUCUCAGGGGAAACUUUGAGAUGGCCUUGCAAAGGGUAUGGUAAUAAGCUGACGGACAUGGUCCUAACCACGCAGCCAAGUCCUAAGUCAACAGAUCUUCUGUUGAUAUGGAUGCAGUUCACAGACUAAAUGUCGGUCGGGGAAGAUGUAUUCUUCUCAUAAGAUAUAGUCGGACCUCUCCUUAAUGGGAGCUAGCGGAUGAAGUGAUGCAACACUGGAGCCGCUGGGAACUAAUUUGUAUGCGAAAGUAUAUUGAUUAGUUUUGGAGUACUCGUGGUCG
Procedure, shortened: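 Six replicate transformations of E. coli BL21(DE3) with a pET-22b(+) library were grown overnight at 37°C or 30°C. The library randomised all eight P1ex-region intron nucleotides, the intron lying in the knt kanamycin-resistance gene, and plates were LB agar with or without 25 μg/mL kanamycin plus 100 μg/mL carbenicillin, 50 μM IPTG and 0.2% rhamnose. Pooled colonies were amplicon-sequenced on an Illumina HiSeq 2500, and fitness is the DiMSum error-weighted combination of wild-type-normalised replicate fold changes, kanamycin versus none.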

Sequence | self-splicing fitness (ln) (30 °C) | self-splicing fitness (ln) (37 °C)
GAGCAGCAAUAUUACGUUCC | -3.51 ± 0.17 | -3.28 ± 0.21
CGGGAGCAAUAUUACGAGGG | -2.28 ± 0.29 | 
UAUCAGCAAUAUUACGUCCC | -2.83 ± 0.34 | 0.683 ± 0.26
GUUAAGCAAUAUUACGAAAU | -1.41 ± 0.16 | -2.16 ± 0.24
CCGAAGCAAUAUUACGAGAU | -3.31 ± 0.17 | -2.43 ± 0.21
GCCAAGCAAUAUUACGGGUA | -0.958 ± 0.052 | -0.102 ± 0.062
CAAUAGCAAUAUUACGAGGC | -3.6 ± 0.33 | -1.44 ± 0.31
AUCUAGCAAUAUUACGCUGA | -1.71 ± 0.18 | -0.501 ± 0.13
CGGGAGCAAUAUUACGAUUG | -2.22 ± 0.46 | -1.72 ± 0.34
AUCCAGCAAUAUUACGCAUG | -3.68 ± 0.27 | -0.669 ± 0.13
GACAAGCAAUAUUACGCAGC |  | -1.7 ± 0.22
CAUUAGCAAUAUUACGUAUA | -2.34 ± 0.14 | -0.81 ± 0.12
CAACAGCAAUAUUACGUGGU | -4.16 ± 0.12 | -2.01 ± 0.096
ACAGAGCAAUAUUACGAGAU | -3.23 ± 0.19 | -2.55 ± 0.23
AAGAAGCAAUAUUACGUGUA | -1.85 ± 0.11 | -1.19 ± 0.092
ACCUAGCAAUAUUACGAGUG | -1.43 ± 0.077 | -0.982 ± 0.092
CUCUAGCAAUAUUACGGCCG | -2.41 ± 0.22 | -2.2 ± 0.23
CACCAGCAAUAUUACGCGGU | -3.67 ± 0.12 | -3.31 ± 0.15
AUACAGCAAUAUUACGAUCA | -0.716 ± 0.086 | -0.37 ± 0.093
AGUGAGCAAUAUUACGAACA | -1.77 ± 0.18 | -0.734 ± 0.15
GCUAAGCAAUAUUACGCAGC | -3.14 ± 0.4 | -2.62 ± 0.28
CAUCAGCAAUAUUACGACGU | -0.965 ± 0.064 | -0.79 ± 0.09
AAGCAGCAAUAUUACGAUGC | -1.38 ± 0.11 | -0.411 ± 0.13
AAAUAGCAAUAUUACGGCGC | -1.11 ± 0.15 | -0.73 ± 0.15
UAAAAGCAAUAUUACGUCGU | -3.29 ± 0.13 | -2.17 ± 0.11
AUGAAGCAAUAUUACGUCGG | -0.496 ± 0.1 | -0.498 ± 0.11

Sequence | self-splicing fitness (ln) (30 °C) | self-splicing fitness (ln) (37 °C)
CGGAAGCAAUAUUACGCGCG | -3.13 ± 0.33 | -0.88 ± 0.24
GGCAAGCAAUAUUACGUGAU | -0.97 ± 0.078 | -0.169 ± 0.092
GGGUAGCAAUAUUACGAACC | -2.05 ± 0.39 | 
AAUAAGCAAUAUUACGAAGG | -3.39 ± 0.48 | -2.04 ± 0.39
UAGGAGCAAUAUUACGUCUU | -3.16 ± 0.34 | -0.955 ± 0.23
GCCAAGCAAUAUUACGGGGC | -3.69 ± 0.22 | -2.85 ± 0.27
CGUAAGCAAUAUUACGCGUG | -1.79 ± 0.088 | -0.855 ± 0.12
GCGCAGCAAUAUUACGCAGU | -2.63 ± 0.31 | -1.04 ± 0.29
AAGUAGCAAUAUUACGCGAC | -3.11 ± 0.31 | -1.7 ± 0.36
CCUAAGCAAUAUUACGUCCG | -1.34 ± 0.11 | -0.638 ± 0.11
CGAUAGCAAUAUUACGUCAA | -3.18 ± 0.18 | -2.08 ± 0.15
AUUCAGCAAUAUUACGUGGC | -3.76 ± 0.14 | -2.21 ± 0.16
AUGGAGCAAUAUUACGCUGG |  | -1.53 ± 0.2
CCAUAGCAAUAUUACGAUGC | -3.11 ± 0.17 | -1.88 ± 0.17
UGAUAGCAAUAUUACGCCUC | -3.09 ± 0.32 | -1.34 ± 0.39
CGAAAGCAAUAUUACGAGCU | -2.9 ± 0.12 | -1.59 ± 0.13
UUCCAGCAAUAUUACGCGGG | -3.83 ± 0.29 | -2.69 ± 0.29
UUAUAGCAAUAUUACGGCCA | -1.18 ± 0.31 | -0.579 ± 0.33
UACUAGCAAUAUUACGUUUG | -3.28 ± 0.18 | -2.21 ± 0.29
CAUCAGCAAUAUUACGACAA | -2.31 ± 0.24 | -1.41 ± 0.21
UACAAGCAAUAUUACGUACA | -1.56 ± 0.084 | -0.15 ± 0.086
CUACAGCAAUAUUACGCUAA | -2.93 ± 0.28 | -2.29 ± 0.29
UCACAGCAAUAUUACGUUAG | -2.17 ± 0.077 | -1.49 ± 0.088
GCGCAGCAAUAUUACGGUCC | -1.22 ± 0.12 | 0.23 ± 0.17
UUGCAGCAAUAUUACGCCCG | -0.555 ± 0.18 | -1.07 ± 0.18
GACGAGCAAUAUUACGGCAU | -1.4 ± 0.14 | -0.955 ± 0.17

Sequence | self-splicing fitness (ln) (30 °C) | self-splicing fitness (ln) (37 °C)
ACCGAGCAAUAUUACGAUUC | -3.37 ± 0.25 | -3.31 ± 0.31
GCAAAGCAAUAUUACGUCCC | -0.828 ± 0.14 | -0.697 ± 0.098
CAGCAGCAAUAUUACGAGUA | -3.05 ± 0.19 | -1.77 ± 0.18
GUCAAGCAAUAUUACGUACG | -2.46 ± 0.14 | -1.9 ± 0.17
CUGCAGCAAUAUUACGUAGC | -2.66 ± 0.15 | -1.95 ± 0.18
ACGGAGCAAUAUUACGUCGG | -3.04 ± 0.31 | -0.422 ± 0.23
AGUUAGCAAUAUUACGGCCU | -0.544 ± 0.11 | 0.22 ± 0.13
ACCAAGCAAUAUUACGGCCC | -0.856 ± 0.11 | 0.112 ± 0.16
UUCCAGCAAUAUUACGAAUG | -3.59 ± 0.19 | -1.75 ± 0.15
CCGUAGCAAUAUUACGAUUG | -0.486 ± 0.064 | -0.0224 ± 0.082
ACCCAGCAAUAUUACGAUCG | -1.92 ± 0.073 | -0.696 ± 0.096
GCAUAGCAAUAUUACGGAGA | -4.01 ± 0.37 | -3.02 ± 0.33
CUGCAGCAAUAUUACGUUGG | -2.82 ± 0.14 | -3.09 ± 0.27
CUCAAGCAAUAUUACGCUUG | -3.58 ± 0.18 | -2.38 ± 0.23
UAAUAGCAAUAUUACGCCAU | -2.36 ± 0.22 | -1.55 ± 0.23
AGCGAGCAAUAUUACGAACC | -2.18 ± 0.14 | -0.856 ± 0.15
CCGGAGCAAUAUUACGCUCA | -3.12 ± 0.3 | -2.71 ± 0.41
AACCAGCAAUAUUACGGUGA | -1.19 ± 0.065 | -0.538 ± 0.078
AUUUAGCAAUAUUACGGGUG | -3.24 ± 0.14 | -1.57 ± 0.14
UGAAAGCAAUAUUACGUGCU | -2.79 ± 0.12 | -1.32 ± 0.12
AAACAGCAAUAUUACGAACG | -2.5 ± 0.12 | -0.625 ± 0.12
GUCAAGCAAUAUUACGUCCU | -2.13 ± 0.11 | -1.04 ± 0.11
GUUCAGCAAUAUUACGUUGG | -2.92 ± 0.17 | -1.62 ± 0.15
GCGAAGCAAUAUUACGUAGG | -1.32 ± 0.092 | -1.43 ± 0.13
AUACAGCAAUAUUACGUCUC | -2.98 ± 0.15 | -2.27 ± 0.14
